From the supplement of paper PMC10126150
± gives the standard deviation of the averaged measurements.

System: ATP
Experiment: switch fluorescence ratio, 500 uM ATP over buffer (Cy3 cluster intensity, sum of 5 cycles each) (fold (ratio)); higher = stronger signal-on switching upon ATP binding; sequences stand for … in TCGTCGGCAGCGTCAGATGTGTATAAGAGACAGTTTTTTTTTTTTTTTTTTTTTTTTT…TC
Conditions: aptamer strand: ATP DNA aptamer (quencher-CACCTGGGGGAGTATTGCGGAGGAAGG + anchor), 100 nM annealed; ATP concentration: 500 uM
Procedure, shortened: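 Switching-strand clusters labelled with Cy3 on a modified Illumina MiSeq flow-cell were annealed to 100 nM quencher-labelled ATP aptamer, imaged in selection buffer, and re-imaged after 15 min with 500 uM ATP at 22 °C. This was done over five cycles with NaOH stripping and re-annealing in between. The fluorescence ratio is summed target-cycle over summed buffer-cycle Cy3 intensity per cluster, averaged per switch-domain sequence, excluding clusters outside 100-1000 RFU.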
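Note: ATP exposure 15 min at 22 °C before imaging.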

Sequence | switch fluorescence ratio
GAGGTAGCTA | 1.03 ± 0.0051
GAGGTAGGGA | 1.06 ± 0.13
GAGGTAGTCT | 1.07 ± 0.14
GAGGTCCACT | 1.01 ± 0.044
GAGGTCGGGC | 0.94 ± 0.039
GAGGTCTGTG | 0.965 ± 0.018
GAGGTGAAAT | 1.01 ± 0.027
GAGGTGACTG | 1.01 ± 0.015
GAGGTGAGTG | 0.9921 ± 0.0066
GAGGTGATAG | 1.036 ± 0.0033
GAGGTGTAGA | 1.05 ± 0.022
GAGGTGTAGG | 1.01 ± 0.02
GAGGTGTTCA | 1.01 ± 0.02
GAGGTTCCCG | 0.984 ± 0.051
GAGGTTCGGT | 1.019 ± 0.0037
GAGGTTGGGG | 1.02 ± 0.059
GAGGTTGTTT | 0.977 ± 0.02
GAGGTTTAGA | 0.98753 ± 9.8e-05
GAGGTTTGTA | 0.974 ± 0.013
GAGTAAGACA | 0.99 ± 0.013
GAGTAATGCG | 0.943 ± 0.066
GAGTACCACT | 1.01 ± 0.078
GAGTAGATGT | 0.983 ± 0.011
GAGTAGGGTA | 1.01 ± 0.016
GAGTATATGT | 0.9998 ± 0.0099

Sequence | switch fluorescence ratio
GAGTATCTAG | 0.986 ± 0.038
GAGTATGTGG | 0.9516 ± 0.0029
GAGTCAATTT | 1.0118 ± 0.00063
GAGTCACGTC | 0.9468 ± 0.0088
GAGTCATGCG | 0.911 ± 0.093
GAGTCATTAA | 0.96 ± 0.041
GAGTCCAGGC | 1.07 ± 0.16
GAGTCCCTGA | 0.993 ± 0.032
GAGTCCTCTT | 1.01 ± 0.032
GAGTCGGCGC | 0.983 ± 0.1
GAGTCGGTTA | 0.98 ± 0.045
GAGTCTCTTA | 1 ± 0.027
GAGTCTGGT | 0.981 ± 0.036
GAGTGAAAGT | 0.99 ± 0.023
GAGTGAGCAG | 0.976 ± 0.022
GAGTGAGGGT | 0.987 ± 0.031
GAGTGCAATT | 1.19 ± 0.034
GAGTGCAGGG | 0.994 ± 0.03
GAGTGCAGGT | 1.01 ± 0.015
GAGTGCCGGG | 1.03 ± 0.016
GAGTGCGACG | 1.08 ± 0.078
GAGTGGACTC | 0.999 ± 0.029
GAGTGGGGA | 1.03 ± 0.04
GAGTGGGGTA | 1 ± 0.011
GAGTGGTCGC | 1.002 ± 0.0014

Sequence | switch fluorescence ratio
GAGTGTAAGA | 1 ± 0.034
GAGTGTCCGG | 0.982 ± 0.025
GAGTGTGACT | 0.97 ± 0.055
GAGTGTGCGC | 1.02 ± 0.03
GAGTGTGCGT | 0.975 ± 0.036
GAGTGTTCGG | 0.988 ± 0.042
GAGTGTTCTT | 0.977 ± 0.01
GAGTGTTTAG | 1.01 ± 0.016
GAGTTACGGG | 1.01 ± 0.072
GAGTTCAGTA | 0.975 ± 0.034
GAGTTCATAG | 1 ± 0.013
GAGTTCGGGA | 1.02 ± 0.029
GAGTTGAAAA | 0.9868 ± 0.001
GAGTTGGTTT | 1 ± 0.022
GAGTTGTGGG | 0.993 ± 0.014
GAGTTGTGTA | 0.985 ± 0.035
GAGTTGTTAT | 0.973 ± 0.037
GAGTTGTTGT | 0.996 ± 0.018
GAGTTTAAAT | 1.02 ± 0.022
GAGTTTCAGA | 1.033 ± 0.0033
GAGTTTCAGT | 1.04 ± 0.073
GAGTTTGTTA | 1.01 ± 0.07
GAGTTTGTTT | 0.99 ± 0.044
GAGTTTTGGC | 0.952 ± 0.09
GATAAAGTAA | 0.983 ± 0.015

Sequence | switch fluorescence ratio
GATAAATGTA | 0.9808 ± 0.0084
GATAACGGGG | 0.972 ± 0.02
GATAAGGGGA | 1.03 ± 0.023
GATAATAGGC | 1 ± 0.06
GATAATATAA | 1.02 ± 0.026
GATAATGCGG | 1.01 ± 0.025
GATAATTATG | 0.98 ± 0.019
GATAATTCTG | 1 ± 0.024
GATAATTGG | 0.988 ± 0.02
GATAATTGTA | 0.9822 ± 0.0033
GATACCGGTG | 1.17 ± 0.25
GATACGCGGG | 0.9947 ± 0.0057
GATAGCTGGG | 1 ± 0.014
GATAGGATGG | 0.9842 ± 0.0027
GATAGGATTG | 0.987 ± 0.022
GATAGGCGTG | 1.01 ± 0.029
GATAGGGATG | 1.001 ± 0.0062
GATAGGGTAT | 0.986 ± 0.015
GATAGGTATA | 1.01 ± 0.032
GATAGGTTTC | 0.977 ± 0.07
GATAGTCATG | 0.985 ± 0.015
GATAGTTGCG | 1.03 ± 0.06
GATATACCTT | 1.15 ± 0.015
GATATAGTAT | 0.993 ± 0.039
GATATAGTGC | 1.01 ± 0.05

Sequence | switch fluorescence ratio
GATATATGAG | 0.997 ± 0.064
GATATATTGC | 1.03 ± 0.012
GATATCACTG | 1.02 ± 0.016
GATATCTGGA | 1.018 ± 0.0099
GATATGAGGG | 1.029 ± 0.0037
GATATGCGTC | 1.04 ± 0.0086
GATATGCTGT | 0.985 ± 0.017
GATATGGAAG | 1.13 ± 0.23
GATATGGATT | 0.977 ± 0.016
GATATGGGAG | 0.988 ± 0.018
GATATGTGTG | 0.991 ± 0.011
GATATGTTGA | 1 ± 0.023
GATATTATCA | 1.017 ± 0.0049
GATATTCGGG | 0.988 ± 0.017
GATATTGAGC | 1.02 ± 0.026
GATATTGTGG | 0.987 ± 0.025
GATATTTAGG | 1.02 ± 0.038
GATATTTCGT | 0.9768 ± 0.0034
GATATTTTTG | 1 ± 0.024
GATCAAATAT | 1.01 ± 0.0063
GATCACGTTG | 0.999 ± 0.022
GATCACTATA | 1.03 ± 0.054
GATCACTGTA | 1.15 ± 0.036
GATCAGAGGT | 1 ± 0.029
GATCATATTT | 1 ± 0.017

Sequence | switch fluorescence ratio
GATCATGCTA | 1.02 ± 0.02
GATCCAGAAT | 0.9977 ± 0.0074
GATCCATACT | 1.06 ± 0.042
GATCCCAGAG | 1.16 ± 0.082
GATCCCGCGG | 1.049 ± 0.0088
GATCCGAGTT | 0.99 ± 0.034
GATCCTACGG | 0.972 ± 0.048
GATCCTGAGG | 0.968 ± 0.077
GATCGAAGGG | 0.9849 ± 0.0079
GATCGATCGT | 1 ± 0.027
GATCGCCGTT | 1.07 ± 0.063
GATCGGGTTG | 0.999 ± 0.026
GATCGTATAT | 0.9987 ± 0.0084
GATCTCCCCT | 1.38 ± 0.053
GATCTGGCGG | 1.01 ± 0.034
GATCTGGCTT | 0.976 ± 0.031
GATCTTAACA | 1.003 ± 0.0089
GATGAAACGT | 1.06 ± 0.045
GATGAATGCT | 0.9814 ± 0.0034
GATGACAGGT | 1.03 ± 0.041
GATGACAGTG | 0.969 ± 0.083
GATGAGCTGT | 1.03 ± 0.046
GATGAGTCTG | 0.98 ± 0.044
GATGAGTTGT | 0.961 ± 0.021
GATGATGGGA | 0.97941 ± 0.00096

Sequence | switch fluorescence ratio
GATGATGGGG | 0.998 ± 0.044
GATGATGGGT | 1 ± 0.023
GATGATTATG | 0.993 ± 0.011
GATGATTATT | 0.9856 ± 0.0018
GATGATTTGT | 1.02 ± 0.058
GATGCAAGTG | 1.07 ± 0.033
GATGCCTGGA | 1.02 ± 0.086
GATGCGATGT | 1.18 ± 0.036
GATGCGGGAG | 1.0227 ± 0.00027
GATGCTTATG | 1.01 ± 0.04
GATGGACTAA | 1.02 ± 0.018
GATGGAGATA | 0.936 ± 0.06
GATGGAGGGC | 1.05 ± 0.039
GATGGCGGGC | 1.01 ± 0.013
GATGGCTGCG | 1.04 ± 0.039
GATGGGAAAT | 1 ± 0.012
GATGGGAATG | 1.01 ± 0.013
GATGGGGCTC | 0.979 ± 0.024
GATGGGGTGT | 1.03 ± 0.027
GATGGTGTAA | 0.967 ± 0.028
GATGGTTATC | 0.961 ± 0.026
GATGGTTGGG | 0.998 ± 0.029
GATGGTTGTC | 1 ± 0.055
GATGTAACAC | 1.07 ± 0.013
GATGTACACG | 1.013 ± 0.003

Sequence | switch fluorescence ratio
GATGTCAACG | 0.973 ± 0.032
GATGTCGTAC | 0.99 ± 0.012
GATGTCGTGG | 1.015 ± 0.0089
GATGTCTCGA | 0.982 ± 0.079
GATGTGCACC | 0.983 ± 0.027
GATGTGGGCA | 1.05 ± 0.026
GATGTGGTGG | 0.99 ± 0.034
GATGTGTGCG | 0.897 ± 0.13
GATGTGTTTC | 1.03 ± 0.06
GATGTTATTC | 0.978 ± 0.011
GATGTTGTAC | 1.09 ± 0.079
GATGTTGTTA | 0.9647 ± 0.0086
GATGTTTGGA | 1.014 ± 0.0049
GATGTTTTCT | 0.982 ± 0.054
GATTAAAAAT | 1.0123 ± 0.00055
GATTAAAGGA | 1.01 ± 0.011
GATTAAAGGC | 1.01 ± 0.039
GATTAAAGGG | 1.001 ± 0.0085
GATTAACGTG | 0.9917 ± 0.0044
GATTAAGCGT | 0.984 ± 0.042
GATTAATTTT | 1.02 ± 0.043
GATTACAGGG | 0.957 ± 0.038
GATTACTTCA | 1.065 ± 0.0071
GATTAGGAGT | 0.985 ± 0.014
GATTAGGCGG | 0.982 ± 0.066
